# Reference: IntAct's records for PubMed 17698606
# B1: S phase cyclin A-associated protein in the endoplasmic reticulum (Homo sapiens), Q9BY12 (parent)
# chain: MMASFQRSNSHDKVRRIVAEEGRTARNLIAWSVPLESKDDDGKPKCQTGGKSKRTIQGTHKTTKQSTAVDCKITSSTTGDKHFDKSPTKTRHPRKIDLRARYWAFLFDNLRRAVDEIYVTCESDQSVVECKEVLMMLDNYVRDFKALIDWIQLQEKLEKTDAQSRPTSLAWEVKKMSPGRHVIPSPSTDRINVTSNARRSLNFGGSTGTVPAPRLAPTGVSWADKVKAHHTGSTASSEITPAQSCPPMTVQKASRKNERKDAEGWETVQRGRPIRSRSTAVMPKVSLATEATRSKDDSDKENVCLLPDESIQKGQFVGDGTSNTIESHPKDSLHSCDHPLAEKTQFTVSTLDDVKNSGSIRDNYVRTSEISAVHIDTECVSVMLQAGTPPLQVNEEKFPAEKARIENEMDPSDISNSMAEVLAKKEELADRLEKANEEAIASAIAEEEQLTREIEAEENNDINIETDNDSDFSASMGSGSVSFCGMSMDWNDVLADYEARESWRQNTSWGDIVEEEPARPPGHGIHMHEKLSSPSRKRTIAESKKKHEEKQMKAQQLREKLREEKTLKLQKLLEREKDVRKWKEELLDQRRRMMEEKLLHAEFKREVQLQAIVKKAQEEEAKVNEIAFINTLEAQNKRHDVLSKLKEYEQRLNELQEERQRRQEEKQARDEAVQERKRALEAERQARVEELLMKRKEQEARIEQQRQEKEKAREDAARERARDREERLAALTAAQQEAMEELQKKIQLKHDESIRRHMEQIEQRKEKAAELSSGRHANTDYAPKLTPYERKKQCSLCNVLISSEVYLFSHVKGRKHQQAVRENTSIQGRELSDEEVEHLSLKKYIIDIVVESTAPAEALKDGEERQKNKKKAKKIKARMNFRAKEYESLMETKNSGSDSPYKAKLQRLAKDLLKQVQVQDSGSWANNKVSALDRTLGEITRILEKENVADQIAFQAAGGLTALEHILQAVVPATNVNTVLRIPPKSLCNAINVYNLTCNNCSENCSDVLFSNKITFLMDLLIHQLTVYVPDENNTILGRNTNKQVFEGLTTGLLKVSAVVLGCLIANRPDGNCQPATPKIPTQEMKNKPSQGDPFNNRVQDLISYVVNMGLIDKLCACFLSVQGPVDENPKMAIFLQHAAGLLHAMCTLCFAVTGRSYSIFDNNRQDPTGLTAALQATDLAGVLHMLYCVLFHGTILDPSTASPKENYTQNTIQVAIQSLRFFNSFAALHLPAFQSIVGAEGLSLAFRHMASSLLGHCSQVSCESLLHEVIVCVGYFTVNHPDNQVIVQSGRHPTVLQKLCQLPFQYFSDPRLIKVLFPSLIAACYNNHQNKIILEQEMSCVLLATFIQDLAQTPGQAENQPYQPKGKCLGSQDYLELANRFPQQAWEEARQFFLKKEKK
# Variants of: B1
# Settings: with cdk2_human CDK2, P24941
row,effect of a mutation on the interaction,Variant
1,with no effect,R26A;N27A;L28A
2,with no effect,R678A;L680A
3,disrupting interaction strength,R199A;S200A;L201A
